Data taken from publication PMC10360156.
Changes are numbered by the printed parent chain. In names and notes the source's numbering stands. Values belong to the binder of their own block, whether it stands above or below them.

Assays:
[1] = molecular target: four maltose binding proteins arranged in tandem (4MBP)
[2] = molecular target: four maltose binding proteins arranged in tandem (4MBP); remark: listed apart in the source
[3] = molecular target: four maltose binding proteins arranged in tandem (4MBP); remark: listed apart in the source

no. of weak aggregates of 4MBP per trace with 5 μM HSPB8 (No HSPB8: 1.16) (aggregates per trace) [1]: 0.64
percentage of residues of 4MBP forming weak aggregates after unfolding and 5 s relaxation at 0 pN, with 5 μM HSPB8 (40% in the absence of chaperone) [2]: 19%
percentage of residues of 4MBP in tight aggregates (not unfolded at 63 pN) after unfolding and relaxation, with 5 μM HSPB8 [2]: < 2%
B1: human small heat shock protein HSPB8 (wild type) (natural protein)
chain: MADGQMPFSCHYPSRLRRDPFRDSPLSSRLLDDGFGMDPFPDDLTASWPDWALPRLSSAWPGTLRSGMVPRGPTATARFGVPAEGRTPPPFPGEPWKVCVNVHSFKPEELMVKTKDGYVEVSGKHEEKQQEGGIVSKNFTKKIQLPAEVDPVTVFASLSPEGLLIIEAPQVPPYSTFGESSFNNELPQDSQEVTCT

no. of weak aggregates of 4MBP per trace with 5 μM HSPB8-K141E (No HSPB8: 1.16) (aggregates per trace) [1]: 0.85
percentage of residues of 4MBP forming weak aggregates after unfolding and relaxation, with 5 μM HSPB8-K141E (19% for wild-type HSPB8; 40% in the absence of chaperone) [3]: 31%
B2: HSPB8-K141E, pathogenic mutant of human HSPB8 (natural protein)
chain: B1 chain with K141E
